Measured values from patent US20090269356, “Complement Binding Aptamers and Anti-C5 Agents Useful in the Treatment of Ocular Disorders” (published 2009).

Experiments:
[1] = molecular target: T1, complement C5 (full length) (Homo sapiens, UniProt P01031); test: filter; among 11 best clones in 500 nM screen; Kd not given; details: tags: Quidel / Complement Technologies A120.14 / Advanced Research Technologies
Procedure: (§1) Doped reselection data. Both the normal and high salt selections were enriched after 5 rounds over the naïve pool. At round 5 the pool Kd was approximately 165 nM for the high salt selection and 175 nM for the normal salt selection. The extent of binding was about 20% at the plateau in both. The R4 pools were cloned using TOPO TA cloning kit (Invitrogen, Carlsbad, Calif.), and 48 clones from each pool were sequenced. 12 clones from each pool were transcribed and assayed in a single point dot blot assay at 500 nM C5. Dissociation constants (Kds) were again measured using the dot blot assay previously described. Kds were estimated for the 11 best clones identified in the single point screen, by fitting the data to the equation: fraction RNA bound=amplitude*Kd/(Kd+[C5]). The clones with the three best Kds were SEQ ID NO: 91 (73 nM), SEQ ID NO: 96 (84 nM) and SEQ ID NO: 95 (92 nM). The sequences for these 11 clones are listed below in Table 5.

[2] = molecular target: T1, complement C5 (full length); test: filter; dot blot; details: tags: Quidel / Complement Technologies A120.14 / Advanced Research Technologies
Procedure: (§2) The selection progress was monitored using a sandwich filter binding (dot blot) assay. The 5′-³²P-labeled pool RNA (trace concentration) was incubated with C5, 1×DPBS plus 0.1 mg/mL tRNA and 0.1 mg/mL salmon sperm DNA, for 30 minutes at room temperature, and then applied to a nitrocellulose and nylon filter sandwich in a dot blot apparatus (Schleicher and Schuell). The percentage of pool RNA bound to the nitrocellulose was calculated and monitored approximately every 3 rounds with a single point screen (+/−300 nM C5). Pool Kd measurements were measured using a titration of protein and the dot blot apparatus as described above.
(§3) Six constructs based on ARC913 (SEQ ID NO: 75) were transcribed, gel purified, and tested in dot blots for binding to C5.

[3] = molecular target: T1, complement C5 (full length); test: filter; dot blot, no binding; details: tags: Quidel / Complement Technologies A120.14 / Advanced Research Technologies
[4] = molecular target: T1, complement C5 (full length); test: filter; dot blot; 20% plateau; listing entry for SEQ 81 differs in length, printed sequence used; details: tags: Quidel / Complement Technologies A120.14 / Advanced Research Technologies
Procedure: as §2, §3

[5] = molecular target: T1, complement C5 (full length); test: filter; PBS, 1 mM MgCl2, 23 C, 4 h; 0.6 nM at 37 C; kinetic estimate 0.07 nM (koff 0.013 /min, kon 0.18 /nM/min); details: tags: Quidel / Complement Technologies A120.14 / Advanced Research Technologies; label: 5'-32P; stem-loop
Procedure: The binding reactions were analyzed by nitrocellulose filtration using a Minifold I dot-blot, 96-well vacuum filtration manifold (Schleicher & Schuell, Keene, N.H.). A three-layer filtration medium was used, consisting (from top to bottom) of Protran nitrocellolose (Schleicher & Schuell), Hybond-P nylon (Amersham Biosciences, Piscataway, N.J.) and GB002 gel blot paper (Schleicher & Schuell). The nitrocellulose layer, which selectively binds protein over nucleic acid, preferentially retained the anti-C5 aptamer in complex with a protein ligand, while non-complexed anti-C5 aptamer passed through the nitrocellulose and adhered to the nylon. The gel blot paper was included simply as a supporting medium for the other filters. Following filtration, the filter layers were separated, dried and exposed on a phosphor screen (Amersham Biosciences) and quantified using a Storm 860 Phosphorimager® blot imaging system (Amersham Biosciences).
To analyze the association reaction, the equilibration rate constant (keq) for the formation of C5·ARC186 was measured in the presence of varying concentrations of C5 protein (1-5 nM). Complex formation was initiated by mixing together C5 protein and radiolabeled ARC186 in PBS containing 1 mM MgCl₂ at room temperature (23° C.), and stopped by nitrocellulose filtration partitioning. […]

[6] = molecular target: complement C5 in human serum/blood (Homo sapiens, UniProt P01031); test: inhibition; CH50 hemolysis, 0.2% human serum, 37 C; details: protein: extract; label: 5'-32P; stem-loop
Text: The CH50 test measures the ability of the complement system in a serum test sample to lyse 50% of cells in a standardized suspension of antibody-coated sheep erythrocytes. A solution of 0.2% human serum was mixed with antibody-coated sheep erythrocytes (Diamedix EZ Complement CH50 Kit, Diamedix Corp., Miami, Fla.) in the presence or absence of various anti-C5 aptamers. The assay was run according to the kit protocol in veronal-buffered saline containing calcium, magnesium and 1% gelatin (GVB⁺⁺ complement buffer) and incubated for 30 minutes at 37° C. After incubation, the samples were centrifuged to pellet intact erythrocytes. The optical density at 412 nm (OD₄₁₂) of the supernatant was read to quantify the release of soluble hemoglobin, which is proportional to the extent of hemolysis (Green et al., (1995) Chem. Biol. 2:683-95). To verify that the aptamers blocked C5 activation, some hemolysis supernatants were analyzed for the presence of C5a and C5b-9 by ELISA (C5b-9 ELISA kit, Quidel, San Diego, Calif.; C5a ELISA kit, BD Biosciences, San Diego, Calif.) following the ELISA kit protocols.

sC5b-9 complex = sC5b-9 complex (Homo sapiens, UniProt P01031;P01031;P13671;P10643;P07357;P07358;P07360;P02748;P04004 …); test: filter; PBS, 1 mM MgCl2, BSA, tRNA, 25 or 37 C; details: tags: Complement Technologies A127.6; label: 5'-32P; stem-loop
Procedure: (§4) The specificity of ARC186 (SEQ ID NO: 4) for C5 was also assessed in nitrocellulose filtration assays by comparison with complement components both upstream and downstream from C5 in the complement cascade. Purified human proteins and protein complexes were purchased from Complement Technologies (Iyler, Tex.) including: C1q (cat. # A099.18; 2.3 μM), C3 (cat. # A113c.8; 27 μM, C5 (cat. # A120.14; 5.4 μM), C5a des Arg (cat. # A145.6; 60 μM), sC5b-9 (cat. # A127.6; 1 μM), factor B (cat. # A135.12; 11 μM) and factor H (cat #A137.13P; 6.8 μM). Binding reactions were established by performing serial dilutions of protein in PBS plus 1 mM MgCl₂, 0.02 mg (mL BSA and 0.002 mg/mL tRNA, incubating for 14 hours at 25° C. or 37° C., and then applied to the nitrocellulose filtration apparatus as described above. Dissociation constants KD were determined from semi-log plots of % nitrocellulose binding versus [C5] by a fit of the data to the equation: % nitrocellulose binding=amplitude×[C5]/(KD+[C5]).

complement C1q = complement C1q (Homo sapiens, UniProt P02745;P02746;P02747 P02745:23-245,P02746:28-253,P02747:29-245); test: filter; PBS, 1 mM MgCl2, BSA, tRNA; details: tags: Complement Technologies A099.18; chain copies: 6; label: 5'-32P; stem-loop
Procedure: as §4

complement C3 = complement C3 (Homo sapiens, UniProt P01024;P01024 P01024:23-667,P01024:672-1663); test: filter; non-activated C3 essentially does not bind; details: tags: Complement Technologies A113c.8; label: 5'-32P; stem-loop
Procedure: as §4

C5a des Arg = C5a des Arg (Homo sapiens, UniProt P01031 P01031:678-750); test: filter; printed >>3 uM; PBS, 1 mM MgCl2, BSA, tRNA, 25 or 37 C; details: tags: Complement Technologies A145.6; label: 5'-32P; stem-loop
Procedure: as §4

[7] = molecular target: T1, complement C5 (full length); test: filter; dot blot, DPBS; details: tags: Quidel / Complement Technologies A120.14 / Advanced Research Technologies
Procedure: as §2
as §1, with “Kds were estimated for the 11 best clones identified in the single point screen, by fitting the data to the equation: fraction RNA bound=amplitude*Kd/(Kd+[C5]). The clones with the three best Kds were SEQ ID NO: 91 (73 nM), SEQ ID NO: 96 (84 nM) and SEQ ID NO: 95 (92 nM). The sequences for these 11 clones are listed below in Table 5.” left out

T1 sequence (P01031 whole entry): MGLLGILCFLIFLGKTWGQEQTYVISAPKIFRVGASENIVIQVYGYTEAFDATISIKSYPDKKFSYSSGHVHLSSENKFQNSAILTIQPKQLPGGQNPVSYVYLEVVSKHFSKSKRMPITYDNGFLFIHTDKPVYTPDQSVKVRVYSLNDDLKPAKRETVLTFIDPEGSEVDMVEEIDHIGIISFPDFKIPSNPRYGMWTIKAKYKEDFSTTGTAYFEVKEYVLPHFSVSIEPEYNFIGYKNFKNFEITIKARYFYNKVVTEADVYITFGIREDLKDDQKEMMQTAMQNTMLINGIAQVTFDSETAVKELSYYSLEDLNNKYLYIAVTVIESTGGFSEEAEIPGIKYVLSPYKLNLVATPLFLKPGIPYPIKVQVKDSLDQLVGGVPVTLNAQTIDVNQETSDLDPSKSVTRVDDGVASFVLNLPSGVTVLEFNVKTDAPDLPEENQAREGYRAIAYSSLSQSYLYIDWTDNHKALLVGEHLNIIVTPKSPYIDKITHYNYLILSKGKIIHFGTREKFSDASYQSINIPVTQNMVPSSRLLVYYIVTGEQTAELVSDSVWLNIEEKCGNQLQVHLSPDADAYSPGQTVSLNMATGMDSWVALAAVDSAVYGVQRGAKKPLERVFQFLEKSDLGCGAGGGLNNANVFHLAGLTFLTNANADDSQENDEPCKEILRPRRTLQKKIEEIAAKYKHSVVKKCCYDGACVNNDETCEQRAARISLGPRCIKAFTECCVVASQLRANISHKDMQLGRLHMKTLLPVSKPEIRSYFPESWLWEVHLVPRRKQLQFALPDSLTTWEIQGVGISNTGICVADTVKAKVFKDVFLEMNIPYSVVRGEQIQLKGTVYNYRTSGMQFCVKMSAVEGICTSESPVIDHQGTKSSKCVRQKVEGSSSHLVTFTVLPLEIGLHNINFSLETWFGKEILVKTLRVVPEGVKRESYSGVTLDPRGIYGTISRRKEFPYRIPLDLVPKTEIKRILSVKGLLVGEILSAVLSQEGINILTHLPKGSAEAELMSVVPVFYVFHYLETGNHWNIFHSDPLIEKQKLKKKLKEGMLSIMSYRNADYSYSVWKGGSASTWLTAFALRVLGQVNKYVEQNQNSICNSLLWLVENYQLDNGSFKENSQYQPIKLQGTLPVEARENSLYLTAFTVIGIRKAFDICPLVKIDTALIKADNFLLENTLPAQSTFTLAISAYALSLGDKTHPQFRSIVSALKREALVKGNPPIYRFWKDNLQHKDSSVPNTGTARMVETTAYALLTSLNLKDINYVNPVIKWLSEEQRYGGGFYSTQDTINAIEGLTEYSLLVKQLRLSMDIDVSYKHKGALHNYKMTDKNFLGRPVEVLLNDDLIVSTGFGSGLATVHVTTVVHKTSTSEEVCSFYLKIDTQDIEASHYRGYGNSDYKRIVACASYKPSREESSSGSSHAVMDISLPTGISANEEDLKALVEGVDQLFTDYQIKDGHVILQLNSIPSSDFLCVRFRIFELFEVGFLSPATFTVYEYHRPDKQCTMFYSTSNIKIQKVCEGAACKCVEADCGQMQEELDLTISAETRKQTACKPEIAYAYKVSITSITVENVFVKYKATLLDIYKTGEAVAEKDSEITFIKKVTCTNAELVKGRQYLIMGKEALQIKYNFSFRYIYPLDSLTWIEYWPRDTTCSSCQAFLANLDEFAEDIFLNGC
Chain of complement C5 in human serum/blood (P01031 whole entry): as above
Chain of complement C3 (P01024 23-667, chain 1 of 2): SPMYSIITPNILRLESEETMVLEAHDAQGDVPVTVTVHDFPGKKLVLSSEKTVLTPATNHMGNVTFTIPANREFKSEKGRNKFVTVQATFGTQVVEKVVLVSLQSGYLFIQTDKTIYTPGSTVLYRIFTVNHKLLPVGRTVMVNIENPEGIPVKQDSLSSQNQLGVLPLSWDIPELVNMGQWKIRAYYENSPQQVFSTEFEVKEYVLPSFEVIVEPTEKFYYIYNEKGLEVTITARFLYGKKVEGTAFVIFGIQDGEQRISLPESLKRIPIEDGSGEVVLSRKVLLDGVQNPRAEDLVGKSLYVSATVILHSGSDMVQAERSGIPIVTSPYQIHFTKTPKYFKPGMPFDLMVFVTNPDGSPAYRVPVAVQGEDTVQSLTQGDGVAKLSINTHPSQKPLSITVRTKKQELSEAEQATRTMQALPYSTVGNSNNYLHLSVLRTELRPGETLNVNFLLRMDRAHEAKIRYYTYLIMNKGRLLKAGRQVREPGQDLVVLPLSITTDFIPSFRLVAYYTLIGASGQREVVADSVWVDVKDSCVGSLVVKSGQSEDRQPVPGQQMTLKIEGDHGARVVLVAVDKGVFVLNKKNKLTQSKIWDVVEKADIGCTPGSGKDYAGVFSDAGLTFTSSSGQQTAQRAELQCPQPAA
Chain of complement C3 (P01024 672-1663, chain 2 of 2): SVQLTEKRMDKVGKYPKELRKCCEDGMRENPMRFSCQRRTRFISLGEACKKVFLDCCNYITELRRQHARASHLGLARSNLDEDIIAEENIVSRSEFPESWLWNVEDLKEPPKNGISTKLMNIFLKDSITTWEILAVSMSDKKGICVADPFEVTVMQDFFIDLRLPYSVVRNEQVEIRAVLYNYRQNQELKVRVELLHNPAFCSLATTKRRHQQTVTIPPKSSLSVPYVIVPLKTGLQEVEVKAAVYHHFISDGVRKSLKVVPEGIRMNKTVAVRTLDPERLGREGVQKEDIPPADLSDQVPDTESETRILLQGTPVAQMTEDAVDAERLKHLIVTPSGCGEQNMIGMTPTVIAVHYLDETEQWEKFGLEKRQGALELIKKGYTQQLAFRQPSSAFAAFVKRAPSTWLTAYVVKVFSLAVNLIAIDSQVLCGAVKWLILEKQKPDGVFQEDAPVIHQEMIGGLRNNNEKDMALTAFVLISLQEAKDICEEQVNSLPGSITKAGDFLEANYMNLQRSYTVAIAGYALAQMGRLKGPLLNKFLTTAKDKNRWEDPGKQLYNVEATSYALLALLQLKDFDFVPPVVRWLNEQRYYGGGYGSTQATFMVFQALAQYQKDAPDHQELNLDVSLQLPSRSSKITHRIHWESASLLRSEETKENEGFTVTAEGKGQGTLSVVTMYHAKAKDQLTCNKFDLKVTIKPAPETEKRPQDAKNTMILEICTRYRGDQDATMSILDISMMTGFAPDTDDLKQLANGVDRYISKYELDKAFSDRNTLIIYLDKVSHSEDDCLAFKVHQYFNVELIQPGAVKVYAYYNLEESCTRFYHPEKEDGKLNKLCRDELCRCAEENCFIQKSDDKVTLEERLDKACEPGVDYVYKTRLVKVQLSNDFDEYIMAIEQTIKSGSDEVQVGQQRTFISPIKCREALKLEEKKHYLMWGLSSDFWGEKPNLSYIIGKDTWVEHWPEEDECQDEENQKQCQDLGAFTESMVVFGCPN
Chain of C5a des Arg (P01031 678-750, one chain of several): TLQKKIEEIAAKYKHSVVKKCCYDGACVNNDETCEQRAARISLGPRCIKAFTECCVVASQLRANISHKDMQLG
Chain of complement C1q (P02745 23-245, chain 1 of 3): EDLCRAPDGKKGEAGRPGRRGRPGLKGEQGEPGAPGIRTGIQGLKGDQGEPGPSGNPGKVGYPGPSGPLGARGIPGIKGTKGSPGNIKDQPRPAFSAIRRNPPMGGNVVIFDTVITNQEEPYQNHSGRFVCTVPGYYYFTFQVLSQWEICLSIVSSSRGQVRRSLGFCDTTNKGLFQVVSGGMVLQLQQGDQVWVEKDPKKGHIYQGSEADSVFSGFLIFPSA
Chain of complement C1q (P02746 28-253, chain 2 of 3): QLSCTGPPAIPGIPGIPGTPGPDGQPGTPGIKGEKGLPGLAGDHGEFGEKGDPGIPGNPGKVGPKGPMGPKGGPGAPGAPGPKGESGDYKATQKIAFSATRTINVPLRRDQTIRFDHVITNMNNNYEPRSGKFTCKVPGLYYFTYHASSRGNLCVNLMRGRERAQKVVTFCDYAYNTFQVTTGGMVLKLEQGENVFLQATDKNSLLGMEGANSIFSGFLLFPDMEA
Chain of complement C1q (P02747 29-245, chain 3 of 3): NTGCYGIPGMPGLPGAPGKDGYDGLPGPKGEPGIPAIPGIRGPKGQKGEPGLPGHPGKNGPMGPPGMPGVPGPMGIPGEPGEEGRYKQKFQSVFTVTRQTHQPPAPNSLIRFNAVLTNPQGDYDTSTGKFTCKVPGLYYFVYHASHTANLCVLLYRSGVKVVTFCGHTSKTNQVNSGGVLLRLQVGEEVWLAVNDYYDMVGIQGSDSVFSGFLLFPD

B1: doped clone SEQ 94 (mixed)
RNA: GGGAGAGGAGAGAACGUUCUACCUUGGUUUGGCACAGGCAUACAUACGCAGGUCGAUCGGUUACGACUA
modifications: dRmY: A,G deoxy; C,U 2'-OMe
binding result [1]: binds

B2: ARC874 (mixed)
RNA: CCUUGGUUUGGCACAGGCAUACAUACGCAGGG
modifications: dRmY: A,G deoxy; C,U 2'-OMe
Kd [2]: 1000 nM

B3: ARC875 (mixed)
RNA: CCUUGGUUUGGCACAGGCAUACAAACGCAGGG
modifications: dRmY: A,G deoxy; C,U 2'-OMe
binding result [3]: no binding

B4: doped clone SEQ 98 (mixed)
RNA: GGGAGAGGAGAGAACGUUCUACCUUGGUUUGGCACAGGCAUAUAUACGCAGGGUCGAUCCGUUACGACUAGCAUCGAUG
modifications: dRmY: A,G deoxy; C,U 2'-OMe
binding result [1]: binds

B5: doped clone SEQ 97 (mixed)
RNA: GGGAGAGGAGAGAACGUUCUACCUUUCUCUGCCACAAGCAUACCUUCGCGGGGUUCUAUUGGUUACGACUAGCAUCGAUG
modifications: dRmY: A,G deoxy; C,U 2'-OMe
binding result [1]: binds

B6: ARC954 (mixed)
RNA: CGUUCUACCUUGGUUUGGCACAGGCAUACAUACGCAGGGGUCGAUCG
modifications: dRmY: A,G deoxy; C,U 2'-OMe
Kd [4]: 130 nM

B7: ARC186 (ssRNA)
RNA: CGCCGCGGUCUCAGGCGCUGAGUCUGAGUUUACCUGCG
modifications: 2'-F all C and U; 2'-OMe purines except three 2'-OH purines; 3' inverted dT
Kd [5]: 0.08 nM
IC50 [6]: 0.5 nM
Kd (sC5b-9 complex): > 200 nM
Kd (complement C1q): > 300 nM
binding result (complement C3): no binding
Kd (C5a des Arg): > 3000 nM

B8: ARC878 (mixed)
RNA: GGCGGCACAGGCAUACAUACGCAGGGGUCGCC
modifications: dRmY: A,G deoxy; C,U 2'-OMe
binding result [3]: no binding

B9: ARC876 (mixed)
RNA: GGGUUUGGCACAGGCAUACAUACCC
modifications: dRmY: A,G deoxy; C,U 2'-OMe
binding result [3]: no binding

B10: doped clone SEQ 95 (mixed)
RNA: GGGAGAGGAGAGAACGUUCUACCUUAGGUUCGCACUGUCAUACAUACACACGGGCAAUCGGUUACGACUAGCAUCGAUG
modifications: dRmY: A,G deoxy; C,U 2'-OMe
Kd [7]: 92 nM

B11: ARC877 (mixed)
RNA: GGGUUUGGCACAGGCAUACAAACCC
modifications: dRmY: A,G deoxy; C,U 2'-OMe
binding result [3]: no binding

B12: doped clone SEQ 92 (mixed)
RNA: GGGAGAGGAGAGAACGUUCUACCUUGGUUUGGCGCAGGCAUACAUACGCAGGUCGAUCGGUUACGACUAGCAUCGAUG
modifications: dRmY: A,G deoxy; C,U 2'-OMe
binding result [1]: binds

B13: doped clone SEQ 88 (mixed)
RNA: GGGAGAGGAGAGAACGUUCUACCUUGGUUUGGCACAGGCAUACAUACGCAGGGGUCGAUCGGUUACGACUAGCAUCGAUG
modifications: dRmY: A,G deoxy; C,U 2'-OMe
binding result [1]: binds

B14: doped clone SEQ 89 (mixed)
RNA: GGGAGAGGAGAGAACGUUCUACCUUGGUUUGGCACAGGCAUACAUACGCAGGUGUCGAUCUGUUACGACUAGCAUCGAUG
modifications: dRmY: A,G deoxy; C,U 2'-OMe
binding result [1]: binds

B15: doped clone SEQ 91 (mixed)
RNA: GGGAGAGGAGAGAACGUUCUACCUUGGUUUGGCCCAGGCAUAUAUACGCAGGGAUUGAUCCGUUACGACUAGCAUCGAUG
modifications: dRmY: A,G deoxy; C,U 2'-OMe
Kd [7]: 73 nM

B16: doped clone SEQ 93 (mixed)
RNA: GGGAGAGGAGAGAACGUUCUACCUUGUUGUGGCACAGCCAACCCUACGCACGGAUCGCCCGGUUACGACUAGCAUCGAUG
modifications: dRmY: A,G deoxy; C,U 2'-OMe
binding result [1]: binds

B17: doped clone SEQ 90 (mixed)
RNA: GGGAGAGGAGAGAACGUUCUACCUUGGUUUGGCACAGGCAUAAAUACGCAGGGCUCGAUCGGUUACGACUAGCAUCGAUG
modifications: dRmY: A,G deoxy; C,U 2'-OMe
binding result [1]: binds
